Test results published in article PMC4016182, “First Functional and Mutational Analysis of Group 3 N-Acetylneuraminate Lyases from Lactobacillus antri and Lactobacillus sakei 23K” (PLoS ONE, 2014).

What was measured:
[1] = target: N-acetylneuraminate lyase from Lactobacillus sakei 23K (Lactobacillus sakei 23K) (UniProt Q38V37); assay: SEC; gel filtration on Superdex200 10/300 GL in 50 mM phosphate buffer pH 7.0 with 0.15 M NaCl; native mass compared with the subunit mass by HPLC/MS/ESI and SDS-PAGE
LsNAL [2] = target: T1, LsNAL (Latilactobacillus sakei, UniProt Q38V37); assay: thermal shift, SYPRO Orange; assay type: binding; details: 5 mM sodium pyruvate; several pHs (4-9)
T1 construct: gene nanA; N-terminal His-tag (pET-28a), E. coli Rosetta 2; nanA gene 918 bp; homotetramer 140 kDa; EC 4.1.3.3
T1 sequence (Q38V37 1-305): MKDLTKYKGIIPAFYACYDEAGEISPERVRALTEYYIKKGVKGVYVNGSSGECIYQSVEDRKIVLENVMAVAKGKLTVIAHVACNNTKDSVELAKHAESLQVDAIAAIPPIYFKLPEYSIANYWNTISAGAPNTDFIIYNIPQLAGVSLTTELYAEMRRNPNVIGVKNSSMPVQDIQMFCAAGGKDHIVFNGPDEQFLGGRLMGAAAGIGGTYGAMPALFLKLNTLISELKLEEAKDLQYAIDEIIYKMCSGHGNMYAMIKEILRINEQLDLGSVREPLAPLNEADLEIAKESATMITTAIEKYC

LsNAL [3] = target: T1, LsNAL; assay: NAD+-coupled ManNAc dehydrogenase assay, […] nm; assay type: biochemical
LaNAL = target: T2, LaNAL (Limosilactobacillus antri, UniProt C8P490); assay: NAD+-coupled ManNAc dehydrogenase assay, […] nm; assay type: biochemical
T2 construct: gene FC31_GL000711; N-terminal His-tag (pET-28a), E. coli Rosetta 2; nanA gene printed as 828 bp; homotetramer 140 kDa; EC 4.1.3.3
T2 sequence (C8P490 1-305): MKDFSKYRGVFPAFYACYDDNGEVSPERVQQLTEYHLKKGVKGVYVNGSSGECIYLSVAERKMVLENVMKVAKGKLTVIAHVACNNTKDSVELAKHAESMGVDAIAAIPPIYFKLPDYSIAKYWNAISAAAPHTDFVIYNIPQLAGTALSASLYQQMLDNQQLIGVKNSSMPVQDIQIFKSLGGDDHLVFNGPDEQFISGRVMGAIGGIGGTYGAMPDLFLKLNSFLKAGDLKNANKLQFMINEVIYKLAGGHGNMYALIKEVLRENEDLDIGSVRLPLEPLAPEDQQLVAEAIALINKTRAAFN

[4] = target: N-acetylneuraminate lyase from Lactobacillus antri (Lactobacillus antri) (UniProt C8P490); assay: SEC; gel filtration on Superdex200 10/300 GL in 50 mM phosphate buffer pH 7.0 with 0.15 M NaCl; native mass compared with the subunit mass by HPLC/MS/ESI and SDS-PAGE
[5] = substrate: CC(=O)C(=O)O; assay: Neu5Ac synthesis, HPLC-ELSD; assay type: biochemical, Limosilactobacillus antri; details: co-substrate ManNAc, 20 mM phosphate pH 7.0, 37 C
Excerpt: Neu5Ac synthesis, HPLC-ELSD on LaNAL

[6] = substrate: CC(=O)C(=O)O; assay: Neu5Ac synthesis, HPLC-ELSD; assay type: biochemical, Latilactobacillus sakei; details: co-substrate ManNAc, 20 mM phosphate pH 7.0, 37 C
Excerpt: Neu5Ac synthesis, HPLC-ELSD on LsNAL

Molecule	Km [5] [µM]	kcat [5] [s⁻¹]	kcat/Km [5] [M⁻¹ s⁻¹]	also measured
N-acetylneuraminate lyase from Lactobacillus sakei 23K (from UniProt Q38V37 1-305) (enzyme)				stoichiometry N [1]: 4
CC(=O)C(=O)O [pyruvate]				Tm (LsNAL [2]): protective effect was more evident at basic pHs; Ki (LsNAL [3]): 400 µM; Ki (LaNAL): 160 µM
N-acetylneuraminate lyase from Lactobacillus antri (from UniProt C8P490 1-305) (enzyme)				stoichiometry N [4]: 4
LaNAL (Limosilactobacillus antri DSM 16041; G210S/Y213G) (protein, N-terminal His-tag (pET-28a), E. coli Rosetta 2; nanA gene printed as 828 bp; homotetramer 140 kDa; EC 4.1.3.3) MKDFSKYRGVFPAFYACYDDNGEVSPERVQQLTEYHLKKGVKGVYVNGSSGECIYLSVAERKMVLENVMKVAKGKLTVIAHVACNNTKDSVELAKHAESMGVDAIAAIPPIYFKLPDYSIAKYWNAISAAAPHTDFVIYNIPQLAGTALSASLYQQMLDNQQLIGVKNSSMPVQDIQIFKSLGGDDHLVFNGPDEQFISGRVMGAIGGISGTGGAMPDLFLKLNSFLKAGDLKNANKLQFMINEVIYKLAGGHGNMYALIKEVLRENEDLDIGSVRLPLEPLAPEDQQLVAEAIALINKTRAAFN	4300 ± 2000	3 ± 0.3	710	
LaNAL (Limosilactobacillus antri DSM 16041; P193Y) (protein, N-terminal His-tag (pET-28a), E. coli Rosetta 2; nanA gene printed as 828 bp; homotetramer 140 kDa; EC 4.1.3.3) MKDFSKYRGVFPAFYACYDDNGEVSPERVQQLTEYHLKKGVKGVYVNGSSGECIYLSVAERKMVLENVMKVAKGKLTVIAHVACNNTKDSVELAKHAESMGVDAIAAIPPIYFKLPDYSIAKYWNAISAAAPHTDFVIYNIPQLAGTALSASLYQQMLDNQQLIGVKNSSMPVQDIQIFKSLGGDDHLVFNGYDEQFISGRVMGAIGGIGGTYGAMPDLFLKLNSFLKAGDLKNANKLQFMINEVIYKLAGGHGNMYALIKEVLRENEDLDIGSVRLPLEPLAPEDQQLVAEAIALINKTRAAFN	500 ± 10	0.99 ± 0.03	1980	
LaNAL (Limosilactobacillus antri DSM 16041) (protein, N-terminal His-tag (pET-28a), E. coli Rosetta 2; nanA gene printed as 828 bp; homotetramer 140 kDa; EC 4.1.3.3) MKDFSKYRGVFPAFYACYDDNGEVSPERVQQLTEYHLKKGVKGVYVNGSSGECIYLSVAERKMVLENVMKVAKGKLTVIAHVACNNTKDSVELAKHAESMGVDAIAAIPPIYFKLPDYSIAKYWNAISAAAPHTDFVIYNIPQLAGTALSASLYQQMLDNQQLIGVKNSSMPVQDIQIFKSLGGDDHLVFNGPDEQFISGRVMGAIGGIGGTYGAMPDLFLKLNSFLKAGDLKNANKLQFMINEVIYKLAGGHGNMYALIKEVLRENEDLDIGSVRLPLEPLAPEDQQLVAEAIALINKTRAAFN	1100 ± 200	5.6 ± 0.1	5100	
LsNAL (Latilactobacillus sakei subsp. sakei 23K) (protein, N-terminal His-tag (pET-28a), E. coli Rosetta 2; nanA gene 918 bp; homotetramer 140 kDa; EC 4.1.3.3) MKDLTKYKGIIPAFYACYDEAGEISPERVRALTEYYIKKGVKGVYVNGSSGECIYQSVEDRKIVLENVMAVAKGKLTVIAHVACNNTKDSVELAKHAESLQVDAIAAIPPIYFKLPEYSIANYWNTISAGAPNTDFIIYNIPQLAGVSLTTELYAEMRRNPNVIGVKNSSMPVQDIQMFCAAGGKDHIVFNGPDEQFLGGRLMGAAAGIGGTYGAMPALFLKLNTLISELKLEEAKDLQYAIDEIIYKMCSGHGNMYAMIKEILRINEQLDLGSVREPLAPLNEADLEIAKESATMITTAIEKYC				Km [6]: 12500 ± 200 µM; kcat [6]: 3.9 ± 0.1 s⁻¹; kcat/Km [6]: 310 M⁻¹ s⁻¹
